From article PMC4497658

Molecular target: IFNAR receptors (IFNAR1 and IFNAR2) on WISH cells (human (endogenous in WISH)) (UniProt P17181)
Assay: radioligand binding; in situ competition on WISH cells: ^125I-labeled wild type IFNα2 (200,000 cpm/well) with unlabeled IFN at ten concentrations (4-fold steps from 200 nM for the antagonists, 10 nM for IFNα2-α8tail), 1 hr at room temperature, culture medium + 0.1% sodium azide

Row | Substance | EC50 [pM]
1 | IFN-1ant_(N65A) (ligand) | 1700
2 | IFN-1ant_(Y85M) (ligand) | 800
3 | IFN-1ant_(Y85A) (ligand) | 2000
4 | YNS (IFNα2 N57Y, E58N and Q61S) (ligand) | 1
5 | IFN-1ant (IFNα2 R120E with the α8-tail) (ligand) | 500
6 | IFNα2-α8tail (ligand) | 150
